According to PMC3761943 (Cell, 2013):

Experiments:
[1] = target: the molecule itself; experiment: SEC
[2] = target: T1, kinesin-4ΔN (human kinesin-4, aa 733-1232) (human, UniProt O95239 733-1232); experiment: pull-down
T1 sequence (looked up): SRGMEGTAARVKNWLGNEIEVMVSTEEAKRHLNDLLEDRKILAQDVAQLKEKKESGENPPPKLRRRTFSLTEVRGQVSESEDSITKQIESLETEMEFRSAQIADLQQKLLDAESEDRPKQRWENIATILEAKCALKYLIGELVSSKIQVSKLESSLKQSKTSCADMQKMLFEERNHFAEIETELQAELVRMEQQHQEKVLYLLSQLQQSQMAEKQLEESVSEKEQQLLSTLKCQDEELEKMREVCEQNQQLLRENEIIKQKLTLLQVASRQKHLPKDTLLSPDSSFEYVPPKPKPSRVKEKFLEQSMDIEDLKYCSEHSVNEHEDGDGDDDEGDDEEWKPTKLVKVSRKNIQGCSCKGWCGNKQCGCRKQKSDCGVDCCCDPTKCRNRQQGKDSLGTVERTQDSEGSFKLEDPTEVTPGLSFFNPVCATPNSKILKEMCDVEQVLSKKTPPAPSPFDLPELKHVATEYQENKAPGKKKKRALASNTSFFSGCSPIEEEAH

B1: PRC1ΔN1SΔC (human PRC1, aa 19-486) (domain or fragment, UniProt O43663 19-486, looked up)
chain: LNHLREIWELIGIPEDQRLQRTEVVKKHIKELLDMMIAEEESLKERLIKSISVCQKELNTLCSELHVEPFQEEGETTILQLEKDLRTQVELMRKQKKERKQELKLLQEQDQELCEILCMPHYDIDSASVPSLEELNQFRQHVTTLRETKASRREEFVSIKRQIILCMEALDHTPDTSFERDVVCEDEDAFCLSLENIATLQKLLRQLEMQKSQNEAVCEGLRTQIRELWDRLQIPEEEREAVATIMSGSKAKVRKALQLEVDRLEELKMQNMKKVIEAIRVELVQYWDQCFYSQEQRQAFAPFCAEDYTESLLQLHDAEIVRLKNYYEVHKELFEGVQKWEETWRLFLEFERKASDPNRFTNRGGNLLKEEKQRAKLQKMLPKLEEELKARIELWEQEHSKAFMVNGQKFMEYVAEQWEMHRLEKERAKQERQLKNKKQTETEMLYGSAPRTPSKRRGLAPNTPGKAR
stoichiometry N [1]: 2
Kd [2]: 210 ± 10 nM
